The source of these data is patent US20150299686A1.

The target in data set [1] is FrsA (Fermentation Respiration Switch) protein from Vibrio vulnificus, wild type, recombinant (Vibrio vulnificus) (UniProt Q7MN61). Description: cell-based or functional assay.
Data set [2] addresses non-phosphorylated recombinant IIA^Glc protein (crr gene product) from Vibrio vulnificus.
The target of data set [3] is phosphorylated recombinant IIA^Glc protein (crr gene product) from Vibrio vulnificus.

On to “non-phosphorylated recombinant IIA^Glc protein (crr gene product) from Vibrio vulnificus”, for which the catalytic activity of FrsA as fold over PDC in data set [1] worked out at 17 times.

B1: FrsA (Fermentation Respiration Switch) protein from Vibrio vulnificus, wild type, recombinant (protein)
chain: MSEEVSKNLSETLFVKHKQAIETSALTQYMPTSQSLLDEIKEKNGFSWYRNLRRLQWVWQGVDPIEQEQVLARIASSKHSRTDEQWLDTVMGYHSGNWAYEWTRLGMEHQKRAGEMTNEAASEALFSASLCYSIAGYPHLKSDNLAIQAQVLANSAYLEAAKKSKYIIKQLEIPFEKGKITAHLHLTNTDKPHPVVIVSAGLDSLQTDMWRLFRDHLAKHDIAMLTVDMPSVGYSSKYPLTEDYSRLHQAVLNELFSIPYVDHHRVGLIGFRFGGNAMVRLSFLEQERIKACVILGAPIHDIFASPQKLQQMPKMYLDVLASRLGKSVVDIYSLSGQMAAWSLKVQGFLSSRKTKVPILAMSLEGDPVSPYSDNQMVAFFSTYGKAKKISSKTITQGYEQSLDLAIKWLEDELLR
Turning to B1, in data set [2], the Km (pyruvate decarboxylation by FrsA with dephospho-IIA^Glc added) is 390 µM, the kcat (pyruvate decarboxylation by FrsA with dephospho-IIA^Glc added) turned out to be 2980 ± 158 s⁻¹ and the kcat/Km (pyruvate decarboxylation by FrsA with dephospho-IIA^Glc added) turned out to be 7.64e+06 ± 713000 M⁻¹ s⁻¹. Also, in data set [3], the Km (pyruvate decarboxylation by FrsA with phospho-IIA^Glc added) stood at 390 µM, the kcat (pyruvate decarboxylation by FrsA with phospho-IIA^Glc added) stood at 1310 ± 48 s⁻¹ and the kcat/Km (pyruvate decarboxylation by FrsA with phospho-IIA^Glc added) was determined as 3.36e+06 ± 150000 M⁻¹ s⁻¹.
